Data published in the supplement of paper PMC7877785.
± gives the uncertainty stated by the source.

Assay: self-splicing fitness, log relative to wild type (ln ratio); higher = more splicing; Tetrahymena group I intron in knt gene, E. coli kanamycin selection, DiMSum; sequences stand for … in CUCUCU…GGAGGGAAAAGUUAUCAGGCAUGCACCUGGUAGCUAGUCUUUAAACCAAUAGAUUGCAUCGGUUUAAAAGGCAAGACCGUCAAAUUGCGGGAAAGGGGUCAACAGCCGUUCAGUACCAAGUCUCAGGGGAAACUUUGAGAUGGCCUUGCAAAGGGUAUGGUAAUAAGCUGACGGACAUGGUCCUAACCACGCAGCCAAGUCCUAAGUCAACAGAUCUUCUGUUGAUAUGGAUGCAGUUCACAGACUAAAUGUCGGUCGGGGAAGAUGUAUUCUUCUCAUAAGAUAUAGUCGGACCUCUCCUUAAUGGGAGCUAGCGGAUGAAGUGAUGCAACACUGGAGCCGCUGGGAACUAAUUUGUAUGCGAAAGUAUAUUGAUUAGUUUUGGAGUACUCGUGGUCG
Procedure, shortened: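 Library with all eight P1ex-region intron nucleotides randomised, intron inside the knt kanamycin-resistance gene on pET-22b(+), in E. coli BL21(DE3). Cells grew overnight at 37°C or 30°C on LB agar with or without 25 μg/mL kanamycin (plus 100 μg/mL carbenicillin, 50 μM IPTG, 0.2% rhamnose), in six replicate transformations. Pooled colonies were amplicon-sequenced on Illumina HiSeq 2500. DiMSum fitness is the error-weighted combination of wild-type-normalised replicate fold changes, kanamycin versus none.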

Sequence: UGAUAGCAAUAUUACGUCGA
- self-splicing fitness (ln) (30 °C): -1.69 ± 0.11
- self-splicing fitness (ln) (37 °C): -0.847 ± 0.1

Sequence: UUAAAGCAAUAUUACGCAUG
- self-splicing fitness (ln) (30 °C): -0.545 ± 0.12
- self-splicing fitness (ln) (37 °C): 0.368 ± 0.13

Sequence: UCUAAGCAAUAUUACGCCCG
- self-splicing fitness (ln) (30 °C): -0.879 ± 0.21
- self-splicing fitness (ln) (37 °C): 0.0184 ± 0.38

Sequence: UGGCAGCAAUAUUACGCCGU
- self-splicing fitness (ln) (30 °C): -2.63 ± 0.18
- self-splicing fitness (ln) (37 °C): -2.02 ± 0.17

Sequence: UAGAAGCAAUAUUACGUAAA
- self-splicing fitness (ln) (30 °C): -2.04 ± 0.14
- self-splicing fitness (ln) (37 °C): -1.33 ± 0.14

Sequence: GCGCAGCAAUAUUACGCGCU
- self-splicing fitness (ln) (37 °C): -1.41 ± 0.28

Sequence: CACCAGCAAUAUUACGUAAU
- self-splicing fitness (ln) (30 °C): -2.63 ± 0.078
- self-splicing fitness (ln) (37 °C): -1.89 ± 0.097

Sequence: CUGGAGCAAUAUUACGGUAC
- self-splicing fitness (ln) (30 °C): -2.41 ± 0.18
- self-splicing fitness (ln) (37 °C): -2.84 ± 0.27

Sequence: CGUAAGCAAUAUUACGAAUU
- self-splicing fitness (ln) (30 °C): -3.76 ± 0.29
- self-splicing fitness (ln) (37 °C): -2.17 ± 0.21

Sequence: CUGGAGCAAUAUUACGAGGU
- self-splicing fitness (ln) (30 °C): -3.48 ± 0.23
- self-splicing fitness (ln) (37 °C): -2.11 ± 0.17

Sequence: UUUUAGCAAUAUUACGGCGC
- self-splicing fitness (ln) (30 °C): -1.12 ± 0.29
- self-splicing fitness (ln) (37 °C): -0.567 ± 0.34

Sequence: UGGUAGCAAUAUUACGGAGG
- self-splicing fitness (ln) (30 °C): -3.85 ± 0.27
- self-splicing fitness (ln) (37 °C): -1.56 ± 0.16

Sequence: GAAUAGCAAUAUUACGCCUG
- self-splicing fitness (ln) (30 °C): -0.487 ± 0.14
- self-splicing fitness (ln) (37 °C): -0.504 ± 0.16

Sequence: ACACAGCAAUAUUACGGCGA
- self-splicing fitness (ln) (30 °C): -0.436 ± 0.086
- self-splicing fitness (ln) (37 °C): -0.165 ± 0.09

Sequence: AUGUAGCAAUAUUACGGCUG
- self-splicing fitness (ln) (30 °C): -1.95 ± 0.14
- self-splicing fitness (ln) (37 °C): -2.27 ± 0.28

Sequence: UUUCAGCAAUAUUACGGCUG
- self-splicing fitness (ln) (30 °C): -4.1 ± 0.46
- self-splicing fitness (ln) (37 °C): -1.84 ± 0.27

Sequence: GGUGAGCAAUAUUACGGAUU
- self-splicing fitness (ln) (30 °C): -0.567 ± 0.14
- self-splicing fitness (ln) (37 °C): -1.26 ± 0.19

Sequence: ACUCAGCAAUAUUACGGAAA
- self-splicing fitness (ln) (30 °C): -1.61 ± 0.14
- self-splicing fitness (ln) (37 °C): -1.5 ± 0.16

Sequence: UCAGAGCAAUAUUACGUUAA
- self-splicing fitness (ln) (30 °C): -3.58 ± 0.35
- self-splicing fitness (ln) (37 °C): -2.61 ± 0.34

Sequence: ACUCAGCAAUAUUACGGCAU
- self-splicing fitness (ln) (30 °C): -0.665 ± 0.063
- self-splicing fitness (ln) (37 °C): -0.293 ± 0.067

Sequence: CAUAAGCAAUAUUACGGCGG
- self-splicing fitness (ln) (30 °C): 0.324 ± 0.087
- self-splicing fitness (ln) (37 °C): -0.0169 ± 0.12

Sequence: GCGGAGCAAUAUUACGAGUU
- self-splicing fitness (ln) (30 °C): -3.16 ± 0.31
- self-splicing fitness (ln) (37 °C): -1.91 ± 0.25

Sequence: ACGGAGCAAUAUUACGGAUC
- self-splicing fitness (ln) (30 °C): -3.09 ± 0.17
- self-splicing fitness (ln) (37 °C): -2.79 ± 0.26

Sequence: AGCAAGCAAUAUUACGGCUC
- self-splicing fitness (ln) (30 °C): -4.6 ± 0.27
- self-splicing fitness (ln) (37 °C): -3.41 ± 0.4

Sequence: UGGUAGCAAUAUUACGGCAU
- self-splicing fitness (ln) (30 °C): -1.5 ± 0.2
- self-splicing fitness (ln) (37 °C): -0.405 ± 0.21

Sequence: CAAUAGCAAUAUUACGAAGC
- self-splicing fitness (ln) (30 °C): -3.01 ± 0.32
- self-splicing fitness (ln) (37 °C): -2.73 ± 0.32

Sequence: GGGAAGCAAUAUUACGGUCG
- self-splicing fitness (ln) (30 °C): 0.00025 ± 0.1
- self-splicing fitness (ln) (37 °C): -0.403 ± 0.14

Sequence: UGUUAGCAAUAUUACGGGUA
- self-splicing fitness (ln) (30 °C): -0.939 ± 0.15
- self-splicing fitness (ln) (37 °C): -1.4 ± 0.16

Sequence: GACUAGCAAUAUUACGCAUG
- self-splicing fitness (ln) (30 °C): -1.24 ± 0.063
- self-splicing fitness (ln) (37 °C): -0.455 ± 0.075

Sequence: CUGAAGCAAUAUUACGGGGA
- self-splicing fitness (ln) (30 °C): -3.06 ± 0.43
- self-splicing fitness (ln) (37 °C): -2.36 ± 0.37

Sequence: GGUUAGCAAUAUUACGACAA
- self-splicing fitness (ln) (30 °C): 0.354 ± 0.25
- self-splicing fitness (ln) (37 °C): 0.974 ± 0.3

Sequence: AACAAGCAAUAUUACGAAUU
- self-splicing fitness (ln) (30 °C): -1.9 ± 0.091
- self-splicing fitness (ln) (37 °C): -0.666 ± 0.12

Sequence: AAUUAGCAAUAUUACGCGUA
- self-splicing fitness (ln) (30 °C): -1.07 ± 0.12
- self-splicing fitness (ln) (37 °C): -0.804 ± 0.14

Sequence: UCUAAGCAAUAUUACGUUGC
- self-splicing fitness (ln) (30 °C): -3.92 ± 0.34
- self-splicing fitness (ln) (37 °C): -2.81 ± 0.29

Sequence: GCUGAGCAAUAUUACGAAUG
- self-splicing fitness (ln) (37 °C): -1.4 ± 0.37

Sequence: AAGAAGCAAUAUUACGAUUA
- self-splicing fitness (ln) (30 °C): -0.809 ± 0.11
- self-splicing fitness (ln) (37 °C): 0.095 ± 0.11

Sequence: GUGAAGCAAUAUUACGCCGG
- self-splicing fitness (ln) (30 °C): -1.96 ± 0.45

Sequence: CUGGAGCAAUAUUACGAUGC
- self-splicing fitness (ln) (37 °C): -1.84 ± 0.4

Sequence: CAUCAGCAAUAUUACGUUAC
- self-splicing fitness (ln) (30 °C): -4.12 ± 0.39
- self-splicing fitness (ln) (37 °C): -1.92 ± 0.22

Sequence: GGACAGCAAUAUUACGCGUG
- self-splicing fitness (ln) (30 °C): -1.17 ± 0.065
- self-splicing fitness (ln) (37 °C): -0.234 ± 0.074

Sequence: GUCAAGCAAUAUUACGACAG
- self-splicing fitness (ln) (30 °C): -4.39 ± 0.33
- self-splicing fitness (ln) (37 °C): -2.93 ± 0.33

Sequence: AAGUAGCAAUAUUACGUGUG
- self-splicing fitness (ln) (30 °C): -2.07 ± 0.099
- self-splicing fitness (ln) (37 °C): -1.15 ± 0.094

Sequence: AAUUAGCAAUAUUACGCCCA
- self-splicing fitness (ln) (30 °C): 0.555 ± 0.24
- self-splicing fitness (ln) (37 °C): -0.278 ± 0.36

Sequence: AGUGAGCAAUAUUACGGAGG
- self-splicing fitness (ln) (30 °C): -3.77 ± 0.28
- self-splicing fitness (ln) (37 °C): -2.67 ± 0.27

Sequence: CCCCAGCAAUAUUACGUGAU
- self-splicing fitness (ln) (30 °C): -3.64 ± 0.11
- self-splicing fitness (ln) (37 °C): -2.96 ± 0.18

Sequence: CGGCAGCAAUAUUACGUGCA
- self-splicing fitness (ln) (30 °C): -1.03 ± 0.27
- self-splicing fitness (ln) (37 °C): -0.293 ± 0.23

Sequence: UGUGAGCAAUAUUACGGGCA
- self-splicing fitness (ln) (30 °C): -0.886 ± 0.069
- self-splicing fitness (ln) (37 °C): -0.176 ± 0.081

Sequence: AAGAAGCAAUAUUACGGGGG
- self-splicing fitness (ln) (30 °C): -2.79 ± 0.21
- self-splicing fitness (ln) (37 °C): -2.09 ± 0.23

Sequence: AAAAAGCAAUAUUACGAAAU
- self-splicing fitness (ln) (30 °C): -1.91 ± 0.091
- self-splicing fitness (ln) (37 °C): -1.01 ± 0.12
